The results in this text go back to US20250011363A1, “OPTIMIZED SHORTENED PEPTIDE THAT BINDS TO ACETYLCHOLINE RECEPTOR, AND USE THEREOF” (SKINMED CO., LTD., priority 2021, published 2025).

This experiment has as its target acetylcholine receptor (Homo sapiens, UniProt P02708). Nature of the experiment: SPR binding affinity (RU) of optimized 5mer/6mer/7mer peptides, Examples 6-7. Conditions: SPR, peptides tested at 10 μM. In a few lines: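 Binding response (RU) to the human acetylcholine receptor was measured by SPR. Each 5mer or 6mer library peptide was applied at 10 μM, with sequences drawn from top and bottom amino-acid combinations.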
On the technique in general: Surface plasmon resonance follows binding to a sensor surface in real time, without labels.

[1] abbreviates: Resonance Units, 6mer-1 Bottom sequence (Table 11).

Chain of acetylcholine receptor (P02708 21-457): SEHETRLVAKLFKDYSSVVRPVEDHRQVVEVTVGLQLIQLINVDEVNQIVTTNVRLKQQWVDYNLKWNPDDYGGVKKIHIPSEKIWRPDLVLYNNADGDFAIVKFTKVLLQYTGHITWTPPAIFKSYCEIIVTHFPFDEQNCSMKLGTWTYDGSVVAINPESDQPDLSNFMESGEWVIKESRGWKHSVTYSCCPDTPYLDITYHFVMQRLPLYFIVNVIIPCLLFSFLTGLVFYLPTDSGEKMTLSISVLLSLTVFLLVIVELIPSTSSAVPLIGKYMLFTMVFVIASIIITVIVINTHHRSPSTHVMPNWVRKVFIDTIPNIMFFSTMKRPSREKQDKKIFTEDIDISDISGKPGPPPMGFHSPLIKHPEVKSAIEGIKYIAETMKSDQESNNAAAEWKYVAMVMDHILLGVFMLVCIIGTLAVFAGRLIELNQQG

Turning to 6mer-1-564 (KRSITK), under “6mer-1 Top sequence”, the Binding affinity was 139 Ru.
As for 6mer-1-565 (KRSIRR), the Binding affinity (6mer-1 Top sequence) came out at 151 Ru.
For the substance 6mer-1-566 (KKSFCR), under “6mer-1 Top sequence”, the Binding affinity is given as 148 Ru.
Same read-out and setting: under 6mer-1-567 (KKRVSR) stands 136 Ru; under 6mer-1-568 (KRWQQK), 147 Ru.
Still for that read-out and setting: then 6mer-1-569 (RRVITK), with 148 Ru.
The same measure, in the same setting: then 6mer-1-570 (RKRLRK), with 122 Ru; and 6mer-1-571 (RKLLCK), with 154 Ru; and 6mer-1-572 (KRVLLK), with 126 Ru.
Consider 6mer-1-573 (KRVLLR), for which the Binding affinity (6mer-1 Top sequence) is listed as 126 Ru.
Same read-out and setting: under 6mer-1-574 (RKSYLR) stands 148 Ru.
The same measure, in the same setting: under 6mer-1-575 (KRWVRR) stands 148 Ru; under 6mer-1-576 (RKRQRR), 153 Ru.
Same read-out and setting: then 6mer-1-577 (KKQYQR), with 128 Ru; and 6mer-1-578 (RKGQYK), with 139 Ru.
For 6mer-1-579 (KRSVRK), the Binding affinity (6mer-1 Top sequence) stood at 148 Ru.
Still for that read-out and setting: under 6mer-1-580 (KKSLQK) stands 121 Ru; under 6mer-1-581 (KRGLYK), 139 Ru; under 6mer-1-582 (KRWFLK), 137 Ru.
The same measure, in the same setting: under 6mer-1-583 (KKVLYK) stands 139 Ru; under 6mer-1-584 (RKQVSK), 127 Ru.
Still for that read-out and setting: then 6mer-1-585 (RKSRQK), with 144 Ru; and 6mer-1-586 (KRVICK), with 136 Ru; and 6mer-1-587 (KKQLLK), with 148 Ru.
As to 6mer-1-588 (RRLVRK), the Binding affinity (6mer-1 Top sequence) is 153 Ru.
The same measure, in the same setting: under 6mer-1-589 (KKLQQK) stands 139 Ru; under 6mer-1-590 (RKGVTK), 142 Ru; under 6mer-1-591 (KKRLYR), 147 Ru.
The same measure, in the same setting: then 6mer-1-592 (RRWLSK), with 135 Ru; and 6mer-1-593 (RKVYRK), with 148 Ru; and 6mer-1-594 (KRQLQR), with 121 Ru.
Same read-out and setting: under 6mer-1-595 (KKSLCK) stands 121 Ru; under 6mer-1-596 (RKGVLR), 148 Ru.
For the substance 6mer-1-597 (KRGFYK), the Binding affinity (6mer-1 Top sequence) worked out at 148 Ru.
Still for that read-out and setting: then 6mer-1-598 (RKWLSK), with 142 Ru; and 6mer-1-599 (KKLYQR), with 124 Ru; and 6mer-1-600 (KRGYCR), with 139 Ru.
In the case of 6mer-1-601 (KKEWNK), the Binding affinity under setting [1] amounted to 27 Ru.
For the substance 6mer-1-602 (RKAEKR), the Binding affinity under setting [1] came out at 18 Ru.
Same read-out and setting: then 6mer-1-603 (KRPHFK), with 13 Ru.
Consider 6mer-1-604 (KKFTKK), for which the Binding affinity under setting [1] was 24 Ru.
Regarding 6mer-1-605 (RKNADR), the Binding affinity under setting [1] is recorded as 20 Ru.
Same read-out and setting: under 6mer-1-606 (RREWFR) stands 15 Ru; under 6mer-1-607 (KKDHFR), 22 Ru; under 6mer-1-608 (KKACMR), 18 Ru.
Consider 6mer-1-609 (RKNPVR), for which the Binding affinity under setting [1] is on record as 24 Ru.
On the same count and under the same terms, then 6mer-1-610 (KKHHER), with 27 Ru; and 6mer-1-611 (KKNCHK), with 23 Ru.
As to 6mer-1-612 (KRIMER), under setting [1], the Binding affinity was found to be 17 Ru.
Same read-out and setting: under 6mer-1-613 (KRIMKK) stands 14 Ru.
The same measure, in the same setting: then 6mer-1-614 (KKEEER), with 12 Ru.
Regarding 6mer-1-615 (KKTSER), the Binding affinity under setting [1] is given as 18 Ru.
Regarding 6mer-1-616 (KKNTIK), the Binding affinity under setting [1] was found to be 31 Ru.
Consider 6mer-1-617 (KRHNVR), for which the Binding affinity under setting [1] is recorded as 31 Ru.
Regarding 6mer-1-618 (RKCHVK), the Binding affinity under setting [1] is 19 Ru.
On the same count and under the same terms, under 6mer-1-619 (KKIDKR) stands 23 Ru; under 6mer-1-620 (RRKTAK), 11 Ru; under 6mer-1-621 (RRMAGK), 30 Ru.
Turning to 6mer-1-622 (KKCPNR), under setting [1], the Binding affinity was 18 Ru.
Turning to 6mer-1-623 (RRTDWR), the Binding affinity under setting [1] is 21 Ru.
Regarding 6mer-1-624 (KKPPAK), the Binding affinity under setting [1] was found to be 30 Ru.
As to 6mer-1-625 (KREDKK), the Binding affinity under setting [1] is on record as 33 Ru.
Still for that read-out and setting: under 6mer-1-626 (KRPDNR) stands 27 Ru; under 6mer-1-627 (RRTWWR), 29 Ru.
On the same count and under the same terms, then 6mer-1-628 (RRENEK), with 23 Ru; and 6mer-1-629 (RKMDAK), with 11 Ru; and 6mer-1-630 (KRMEPR), with 14 Ru.
The same measure, in the same setting: under 6mer-1-631 (RRYSDR) stands 13 Ru.
Consider 6mer-1-632 (RKDTAR), for which the Binding affinity under setting [1] is reported as 17 Ru.
Still for that read-out and setting: then 6mer-1-633 (RKIDAK), with 16 Ru; and 6mer-1-634 (KKNTMR), with 12 Ru; and 6mer-1-635 (KKTTWK), with 33 Ru.
Same read-out and setting: under 6mer-1-636 (RKYKDR) stands 27 Ru; under 6mer-1-637 (RRFEFK), 33 Ru.
In the case of 6mer-1-638 (KKESHR), the Binding affinity under setting [1] was determined as 20 Ru.
As to 6mer-1-639 (KRPNVR), the Binding affinity under setting [1] is on record as 24 Ru.
6mer-1-640 (RRNCWR): the Binding affinity under setting [1] turned out to be 25 Ru.
Still for that read-out and setting: then 6mer-1-641 (RREMFK), with 21 Ru; and 6mer-1-642 (KKYNGK), with 24 Ru.
Same read-out and setting: then 6mer-1-643 (KRYSMR), with 31 Ru; and 6mer-1-644 (RKTWFR), with 31 Ru.
The same measure, in the same setting: under 6mer-1-645 (RRTTIR) stands 33 Ru; under 6mer-1-646 (RRCTGK), 33 Ru; under 6mer-1-647 (RKYNVR), 14 Ru.
Regarding 6mer-1-648 (KKFWEK), under setting [1], the Binding affinity is on record as 17 Ru.
Still for that read-out and setting: under 6mer-1-649 (RRIAGK) stands 32 Ru.
On the same count and under the same terms, then 6mer-1-650 (RRCNNR), with 18 Ru; and 6mer-1-651 (KRICWK), with 27 Ru.
On the same count and under the same terms, then 6mer-1-652 (RRPEVK), with 26 Ru; and 6mer-1-653 (KRMTHR), with 15 Ru.
Regarding 6mer-1-654 (KRMNDR), the Binding affinity under setting [1] worked out at 23 Ru.
The same measure, in the same setting: under 6mer-1-655 (RKNMFR) stands 12 Ru; under 6mer-1-656 (RRPTHK), 28 Ru.
Same read-out and setting: under 6mer-1-657 (RRCTVR) stands 17 Ru; under 6mer-1-658 (RKKEMK), 20 Ru.
The same measure, in the same setting: then 6mer-1-659 (KKPSKR), with 29 Ru; and 6mer-1-660 (KKYHVK), with 31 Ru.
As for 6mer-1-661 (RKPKWR), the Binding affinity under setting [1] worked out at 14 Ru.
Still for that read-out and setting: then 6mer-1-662 (KKMTER), with 20 Ru; and 6mer-1-663 (KKFKDR), with 26 Ru.
Turning to 6mer-1-664 (KRDHIK), the Binding affinity under setting [1] was 26 Ru.
Still for that read-out and setting: then 6mer-1-665 (KKCDGK), with 21 Ru; and 6mer-1-666 (KKAANK), with 18 Ru; and 6mer-1-667 (KRDSPK), with 32 Ru.
Same read-out and setting: then 6mer-1-668 (RKATVK), with 17 Ru.
For the substance 6mer-1-669 (KRNMAK), the Binding affinity under setting [1] turned out to be 23 Ru.
Same read-out and setting: under 6mer-1-670 (KKDWNR) stands 11 Ru; under 6mer-1-671 (KKNMVR), 11 Ru; under 6mer-1-672 (RKMEIR), 17 Ru.
On the same count and under the same terms, then 6mer-1-673 (RRAMPK), with 16 Ru; and 6mer-1-674 (RKHPKK), with 32 Ru.
Same read-out and setting: under 6mer-1-675 (KKIWKR) stands 21 Ru.
Take 6mer-1-676 (KRCPWR): the Binding affinity under setting [1] came out at 16 Ru.
Still for that read-out and setting: under 6mer-1-677 (KKCCFR) stands 22 Ru; under 6mer-1-678 (KRMAAK), 25 Ru.
The same measure, in the same setting: under 6mer-1-679 (KKAEER) stands 30 Ru; under 6mer-1-680 (KKDPPR), 27 Ru.
Same read-out and setting: then 6mer-1-681 (KKEWKK), with 32 Ru; and 6mer-1-682 (KKKDIR), with 30 Ru; and 6mer-1-683 (KRDSMR), with 16 Ru.
Take 6mer-1-684 (KRNNDR): the Binding affinity under setting [1] is 20 Ru.
Still for that read-out and setting: then 6mer-1-685 (RRESWK), with 14 Ru; and 6mer-1-686 (KKYEVR), with 25 Ru.
As for 6mer-1-687 (RREWIK), under setting [1], the Binding affinity was 23 Ru.
On the same count and under the same terms, under 6mer-1-688 (RKDEVR) stands 33 Ru; under 6mer-1-689 (KRCPVR), 11 Ru; under 6mer-1-690 (KREAER), 21 Ru.
On the same count and under the same terms, then 6mer-1-691 (RKPKAR), with 31 Ru; and 6mer-1-692 (RKNTHK), with 22 Ru; and 6mer-1-693 (RKIDMK), with 22 Ru.
Still for that read-out and setting: then 6mer-1-694 (RKYTKR), with 27 Ru; and 6mer-1-695 (KRADVK), with 13 Ru.
